Data set [1] concerns the target ssoMCM mutant M7 (ED327AA) (Sulfolobus solfataricus) (UniProt Q9UXG1). Briefly: SEC; Superose 6 size exclusion column, 250 mM NaCl; ~0.5 mg of protein; markers ferritin (440 kD) and aldolase (158 kD); self-association to the hexamer. On the technique in general: In gel filtration, larger molecules generally elute earlier.
Data set [2] deals with the molecule itself. The description is as above.
Substrate in data set [3]: Nc1ncnc2c1ncn2[C@@H]1O[C@H](COP(=O)(O)OP(=O)(O)OP(=O)(O)O)[C@@H](O)[C@H]1O
Briefly: EnzChek phosphate release ATPase assay. Format: biochemical, Saccharolobus solfataricus. The following applies: no DNA, per monomeric MCM subunit, unit nM. The source says: EnzChek phosphate release ATPase assay on ssoMCM

Changes are numbered by the printed parent chain. Numbers in names are those of the source.

For orientation: stoichiometry N means the number of molecules, sites or subunits per partner or assembly. In data set [1], “ssoMCM mutant M7 (ED327AA) (from UniProt Q9UXG1 1-686) (enzyme)” came in with a stoichiometry N of 6.

B1: ssoMCM mutant M3 (L325A) (enzyme, Sulfolobus solfataricus, UniProt Q9UXG1 1-686, looked up)
chain: MEIPSKQIDYRDVFIEFLTTFKGNNNQNKYIERINELVAYRKKSLIIEFSDVLSFNENLAYEIINNTKIILPILEGALYDHILQLDPTYQRDIEKVHVRIVGIPRVIELRKIRSTDIGKLITIDGILVKVTPVKERIYKATYKHIHPDCMQEFEWPEDEEMPEVLEMPTICPKCGKPGQFRLIPEKTKLIDWQKAVIQERPEEVPSGQLPRQLEIILEDDLVDSARPGDRVKVTGILDIKQDSPVKRGSRAVFDIYMKVSSIEVSQKVLDEVIISEEDEKKIKDLAKDPWIRDRIISSIAPSIYGHWELKEALALALFGGVPKVAEDTRIRGDIHILIIGDPGTAKSQMLQFISRVAPRAVYTTGKGSTAAGLTAAVVREKGTGEYYLEAGALVLADGGIAVIDEIDKMRDEDRVAIHEAMEQQTVSIAKAGIVAKLNARAAVIAAGNPKFGRYISERPVSDNINLPPTILSRFDLIFILKDQPGEQDRELANYILDVHSGKSTKNIIDIDTLRKYIAYARKYVTPKITSEAKNLITDFFVEMRKKSSETPDSPILITPRQLEALIRISEAYAKMALKAEVTREDAERAINIMRLFLESVGVDMESGKIDIDTIMTGKPKSAREKMMKIIEIIDSLAVSSECAKVKDILKEAQQVGIEKSNIEKLLTDMRKSGIIYEAKPECYKKV
notes: MCM of Sulfolobus solfataricus with L325A; source: cloned and purified (Resource Q anion exchange, size-exclusion chromatography) as described previously [15]
As a reminder, the Km is the concentration of substrate that gives half-maximal velocity. In general, kcat refers to the maximal rate divided by the concentration of active sites. Turning to B1, the “stoichiometry N” value in data set [2] came out at 6. Also, in data set [3] (mutant M3), the Michaelis-Menten constant (Km) is given as 270 ± 40 nM and the catalytic constant (kcat) came to 0.0783 ± 0.005 s⁻¹.

B2: ssoMCM mutant M4 (VL324AA) (enzyme, Sulfolobus solfataricus, UniProt Q9UXG1 1-686, looked up)
chain: B1 chain with V324A
notes: MCM of Sulfolobus solfataricus with the double mutation VL324AA (V324 and L325 to alanine); source: cloned and purified (Resource Q anion exchange, size-exclusion chromatography) as described previously [15]
In the case of B2, in data set [2], the “stoichiometry N” value stood at 6. Moreover, in data set [3] (mutant M4, printed VL324AA), the Km came to 230 ± 10 nM and the turnover number (kcat) stood at 0.065 ± 0.00167 s⁻¹.

The record behind these values is PMC2933578, “Mutational analysis of an archaeal minichromosome maintenance protein exterior hairpin reveals critical residues for helicase activity and DNA binding” (BMC Molecular Biology, 2010).
